Results taken from the Immune Epitope Database (IEDB).

Tests used:
HLA-A*01:01 = experiment: IEDB peptide-MHC binding, purified MHC/direct/fluorescence; filed as Kd, often an IC50 or EC50 that approximates it; ≥ and ≤ were set here for values at or beyond the usual limits of such assays
HLA-A*02:01 [1] = experiment: as above
HLA-A*03:01 [2] = experiment: as above
HLA-A*11:01 = experiment: as above
HLA-A*24:02 = experiment: as above
HLA-A*31:01 [3] = experiment: as above
HLA-A*69:01 [4] = experiment: as above
HLA-B*07:02 = experiment: as above
HLA-B*08:02 = experiment: as above
HLA-B*15:01 [5] = experiment: as above
HLA-B*18:01 [6] = experiment: as above
HLA-B*27:05 = experiment: as above
HLA-B*40:01 = experiment: as above
HLA-B*44:02 = experiment: as above
HLA-B*46:01 [7] = experiment: as above
HLA-B*58:01 = experiment: as above
HLA-A*02:01 [8] = experiment: IEDB peptide-MHC binding, purified MHC/competitive/fluorescence; filed as Kd, often an IC50 or EC50 that approximates it; ≥ and ≤ were set here for values at or beyond the usual limits of such assays
HLA-A*02:03 = experiment: as above
HLA-A*02:11 = experiment: as above
HLA-A*02:12 [9] = experiment: as above
HLA-A*02:16 = experiment: as above
HLA-A*02:19 = experiment: as above
HLA-A*03:01 [10] = experiment: as above; settings: source organism: Entamoeba histolytica HM-1:IMSS
HLA-A*24:03 = experiment: as above
HLA-A*26:01 = experiment: as above
HLA-A*29:02 = experiment: as above
HLA-A*68:02 = experiment: as above
HLA-A*69:01 [11] = experiment: as above
HLA-B*15:01 [12] = experiment: as above
HLA-B*15:17 = experiment: as above; settings: source organism: Entamoeba histolytica HM-1:IMSS
HLA-B*18:01 [13] = experiment: as above
HLA-B*27:03 = experiment: as above
HLA-B*39:01 = experiment: as above
HLA-B*46:01 [14] = experiment: as above
HLA-B*51:01 [15] = experiment: as above
HLA-B*57:01 = experiment: as above
HLA-B*51:01 [16] = experiment: IEDB peptide-MHC binding, purified MHC/direct/fluorescence; filed as Kd, often an IC50 or EC50 that approximates it; ≥ and ≤ were set here for values at or beyond the usual limits of such assays
HLA-C*03:03 = experiment: as above
HLA-B*08:01 = experiment: as above; settings: source organism: Vibrio parahaemolyticus AQ3810
HLA-B*15:09 = experiment: as above
HLA-A*31:01 [17] = experiment: IEDB peptide-MHC binding, purified MHC/competitive/fluorescence; filed as Kd, often an IC50 or EC50 that approximates it; ≥ and ≤ were set here for values at or beyond the usual limits of such assays; settings: source organism: Cryptosporidium parvum Iowa II
HLA-C*12:03 = experiment: IEDB peptide-MHC binding, purified MHC/direct/fluorescence; filed as Kd, often an IC50 or EC50 that approximates it; ≥ and ≤ were set here for values at or beyond the usual limits of such assays; settings: source organism: human gammaherpesvirus 4
HLA-A*02:12 [18] = experiment: as above; settings: source organism: Ravn virus - Ravn, Kenya, 1987
[19] = source organism: Coxiella burnetii
[20] = source organism: Entamoeba histolytica HM-1:IMSS
[21] = source organism: dengue virus type 4
[22] = source organism: Vibrio parahaemolyticus
[23] = source organism: Vibrio parahaemolyticus AQ3810
[24] = source organism: Rickettsia bellii
[25] = source organism: Cryptosporidium parvum Iowa II
[26] = source organism: Marburg virus - Musoke, Kenya, 1980

Which results are given for AISRLRTQK?
Kd (HLA-A*01:01; [19]): ≥ 20 µM; Kd (HLA-A*02:01 [1]; [19]): ≥ 20 µM; Kd (HLA-A*03:01 [2]; [19]): 0.386 µM; Kd (HLA-A*11:01; [19]): 0.0995 µM; Kd (HLA-A*24:02; [19]): ≥ 20 µM; Kd (HLA-A*31:01 [3]; [19]): 0.344 µM; Kd (HLA-A*69:01 [4]; [19]): ≥ 20 µM; Kd (HLA-B*07:02; [19]): ≥ 20 µM; Kd (HLA-B*08:02; source organism: Coxiella burnetii Q321): ≥ 20 µM; Kd (HLA-B*15:01 [5]; [19]): ≥ 20 µM; Kd (HLA-B*18:01 [6]; [19]): ≥ 20 µM; Kd (HLA-B*27:05; [19]): ≥ 20 µM; Kd (HLA-B*40:01; [19]): ≥ 20 µM; Kd (HLA-B*44:02; [19]): ≥ 20 µM; Kd (HLA-B*46:01 [7]; [19]): ≥ 20 µM; Kd (HLA-B*58:01; [19]): ≥ 20 µM

Which results are given for IEAKINVAD?
Kd (HLA-A*02:01 [8]; [20]): ≥ 20 µM; Kd (HLA-A*02:03; [20]): ≥ 20 µM; Kd (HLA-A*02:11; [20]): ≥ 20 µM; Kd (HLA-A*02:12 [9]; [20]): ≥ 20 µM; Kd (HLA-A*02:16; [20]): ≥ 20 µM; Kd (HLA-A*02:19; [20]): ≥ 20 µM; Kd (HLA-A*03:01 [10]): ≥ 20 µM; Kd (HLA-A*24:03; [20]): ≥ 20 µM; Kd (HLA-A*26:01; [20]): ≥ 20 µM; Kd (HLA-A*29:02; [20]): ≥ 20 µM; Kd (HLA-A*68:02; [20]): ≥ 20 µM; Kd (HLA-A*69:01 [11]; [20]): ≥ 20 µM; Kd (HLA-B*15:01 [12]; [20]): ≥ 20 µM; Kd (HLA-B*15:17): ≥ 20 µM; Kd (HLA-B*18:01 [13]; [20]): 0.389 µM; Kd (HLA-B*27:03; [20]): ≥ 20 µM; Kd (HLA-B*39:01; [20]): ≥ 20 µM; Kd (HLA-B*46:01 [14]; [20]): ≥ 20 µM; Kd (HLA-B*51:01 [15]; [20]): ≥ 20 µM; Kd (HLA-B*57:01; [20]): ≥ 20 µM

With ILRNPGFAL as the sequence, how does the Kd (HLA-B*51:01 [16]; [21]) read?
Its Kd is at least 20 µM.

And the Kd (HLA-C*03:03; [21])?
The Kd was 0.211 µM.

With LANYAFFAI as the sequence, how does the Kd (HLA-B*51:01 [16]; source organism: Streptococcus pneumoniae) read?
The Kd was 0.23 µM.

What about the Kd (HLA-C*03:03; source organism: Streptococcus pneumoniae R6) of the same sequence?
The Kd was at most 0.001 µM.

Which results are given for MLDQFGVSY?
Kd (HLA-A*01:01; [22]): 0.021 µM; Kd (HLA-A*02:01 [1]; [22]): ≥ 20 µM; Kd (HLA-A*03:01 [2]; [22]): ≥ 20 µM; Kd (HLA-A*11:01; [22]): ≥ 20 µM; Kd (HLA-A*24:02; [22]): ≥ 20 µM; Kd (HLA-A*31:01 [3]; [22]): ≥ 20 µM; Kd (HLA-A*69:01 [4]; [22]): ≥ 20 µM; Kd (HLA-B*07:02; [22]): ≥ 20 µM; Kd (HLA-B*08:01): ≥ 20 µM; Kd (HLA-B*08:02; [23]): ≥ 20 µM; Kd (HLA-B*15:01 [5]; [22]): 0.143 µM; Kd (HLA-B*15:09; [23]): ≥ 20 µM; Kd (HLA-B*27:05; [22]): ≥ 20 µM; Kd (HLA-B*40:01; [22]): ≥ 20 µM; Kd (HLA-B*44:02; [22]): ≥ 20 µM; Kd (HLA-B*58:01; [22]): ≥ 20 µM

Which results are given for NIDPEHLDY?
Kd (HLA-A*01:01; [24]): 0.0326 µM; Kd (HLA-A*02:01 [1]; [24]): ≥ 20 µM; Kd (HLA-A*03:01 [2]; [24]): ≥ 20 µM; Kd (HLA-A*11:01; [24]): ≥ 20 µM; Kd (HLA-A*24:02; [24]): ≥ 20 µM; Kd (HLA-A*31:01 [3]; [24]): ≥ 20 µM; Kd (HLA-A*69:01 [4]; [24]): ≥ 20 µM; Kd (HLA-B*07:02; [24]): ≥ 20 µM; Kd (HLA-B*15:01 [5]; [24]): ≥ 20 µM; Kd (HLA-B*15:09; source organism: Rickettsia typhi str. Wilmington): ≥ 20 µM; Kd (HLA-B*18:01 [6]; [24]): ≥ 20 µM; Kd (HLA-B*27:05; [24]): ≥ 20 µM; Kd (HLA-B*40:01; [24]): ≥ 20 µM; Kd (HLA-B*44:02; [24]): ≥ 20 µM; Kd (HLA-B*46:01 [7]; [24]): ≥ 20 µM; Kd (HLA-B*58:01; [24]): ≥ 20 µM

What does the source list for RGRKPIFRK?
Kd (HLA-A*02:01 [8]; [25]): ≥ 20 µM; Kd (HLA-A*02:03; [25]): ≥ 20 µM; Kd (HLA-A*02:11; [25]): ≥ 20 µM; Kd (HLA-A*02:12 [9]; [25]): ≥ 20 µM; Kd (HLA-A*02:16; [25]): ≥ 20 µM; Kd (HLA-A*02:19; [25]): ≥ 20 µM; Kd (HLA-A*24:03; [25]): ≥ 20 µM; Kd (HLA-A*26:01; [25]): ≥ 20 µM; Kd (HLA-A*29:02; [25]): ≥ 20 µM; Kd (HLA-A*31:01 [17]): 0.0532 µM; Kd (HLA-A*68:02; [25]): ≥ 20 µM; Kd (HLA-A*69:01 [11]; [25]): ≥ 20 µM; Kd (HLA-B*15:01 [12]; [25]): ≥ 20 µM; Kd (HLA-B*18:01 [13]; [25]): ≥ 20 µM; Kd (HLA-B*27:03; [25]): ≥ 20 µM; Kd (HLA-B*39:01; [25]): ≥ 20 µM; Kd (HLA-B*46:01 [14]; [25]): ≥ 20 µM; Kd (HLA-B*51:01 [15]; [25]): ≥ 20 µM; Kd (HLA-B*57:01; [25]): ≥ 20 µM

Which Kd (HLA-C*12:03) does the source give for SQAPLPCVL here?
Its Kd is 0.554 µM.

How did the Kd (HLA-A*02:01 [1]; [26]) turn out when YMQQVSEGL was run?
Its Kd is 0.153 µM.

And the Kd (HLA-A*02:12 [18])?
The Kd was 0.002 µM.

And the Kd (HLA-A*69:01 [4]; [26])?
The Kd was 1.38 µM.

What about the Kd (HLA-C*03:03; source organism: Orthomarburgvirus marburgense) of the same sequence?
The Kd was 0.498 µM.
